Data: paper PMC6375650 (2019)
Residue numbers refer to the chain shown, from its start. Numbers in names are those of the source.

Target: H7 Sh2 HA (A/Shanghai/2/2013), ectodomain trimer, cleavage state not stated (influenza A virus (A/Shanghai/2/2013))
Assay: BLI

B1: H7.5 Fab H-M73R (Fab, V domains shown)
VH: QVQLVQSGAEVKKPGASVKVSCKASGYTLTRYYFHWVRQAPGQGFEWMGIINPNGGGTSYAQKFGDRVIMTSDRSTSTIYMELSSLRSEDTAVYYCARDMPYYHDSGGPLFDLWGQGTLVTVSS
VL: EIVMTQSPSSLSASVGDRVTITCRPSQSISTFLNWYEQKPGKAPKLLIYDASSLQSGVPSRFSGSGSGTEFTLTISSLQPEDFATYYCQQSFSTPYTFGQGTRLEIK
B1 was tested, and the Kd was < 0.1 nM.

B2: H7.5 Fab H-T57A (Fab, V domains shown)
VH: B1 VH with T58A, R74M
VL: B1 VL
With B2 the Kd was 116 nM.

B3: H7.5 Fab H-S74K (Fab, V domains shown)
VH: B1 VH with R74M, S75K
VL: B1 VL
B3 was tested, and the Kd was < 0.1 nM.

B4: H7.5 Fab H-S58W (Fab, V domains shown)
VH: B1 VH with S59W, R74M
VL: B1 VL
For B4, the Kd was > 1000 nM.

B5: H7.5 Fab L-T94Q (Fab, V domains shown)
VH: B1 VH with R74M
VL: B1 VL with T94Q
B5 was tested, and the Kd was > 1000 nM.

B6: H7.5 Fab L-Y96A (Fab, V domains shown)
VH: B1 VH with R74M
VL: B1 VL with Y96A
Binder B6 has a Kd of 549 nM.
